{"source": "patent US20230398116A1", "about": "“Agent for reversing resistance to anticancer drugs” (Y'S AC CO., LTD., priority 2020, published 2023)", "molecules": {"B1": {"name": "Hu69-10A-IgG1/kappa antibody (Hu69-10A-IgG1) (antibody, V domains shown)", "VH": "QVTLKESGPALVKPTQTLTLTCTFSGFSLSTSGMGVGWIRQPPGKALEWLAHIWWDDDKYYNPSLKSQLTISKDTSKNQVVLTMTNMDPVDTATYYCVRGGITATHYYAMDYWGQGTTVTVSS", "VL": "DIQMTQSPSSLSASVGDRVTITCLASQTIGTWLSWYQQKPGKAPKLLIYAATSLADGVPSRFSGSGSGTKFTFTISSLQPEDIATYYCQQLYSSPWTFGGGTKVEIK", "notes": "also called h69-10A; humanized anti-IL-26 antibody Hu69-10A"}, "B2": {"name": "Hu69-10B IgG1/kappa antibody (Hu69-10B-IgG1) (antibody, V domains shown)", "VH": "B1 VH", "VL": "B1 VL with K70D", "notes": "also called h69-10B; humanized anti-IL-26 antibody Hu69-10B"}, "B3": {"name": "Ephrin A5: known ligand of EphA3 (protein, UniProt P52803 21-203, looked up)", "Ephrin-A5": "QDPGSKAVADRYAVYWNSSNPRFQRGDYHIDVCINDYLDVFCPHYEDSVPEDKTERYVLYMVNFDGYSACDHTSKGFKRWECNRPHSPNGPLKFSEKFQLFTPFSLGFEFRPGREYFYISSAIPDNGRRSCLKLKVFVRPTNSCMKTIGVHDRVFDVNDKVENSLEPADDTVHESAEPSRGEN"}, "B4": {"name": "mouse soluble EphA3: recombinant mouse EphA3 Fc chimeric protein purchased from R&D Systems (protein)", "chain": "ELSPQPSNEVNLLDSKTIQGELGWISYPSHGWEEISGVDEHYTPIRTYQVCNVMDHSQNNWLRTNWVPRNSAQKIYVELKFTLRDCNSIPLVLGTCKETFNLYYMESDDHGVKFREHQFTKIDTIAADESFTQMDLGDRILKLNTEIREVGPVNKKGFYLAFQDVGACVALVSVRVYFKKCPFTVKNLAMFPDTVPMDSQSLVEVRGSCVNNSKEEDPPRMYCSTEGEWLVPIGKCTCNAGYEERGFICQACRPGFYKASDGAAKCAKCPPHSSTQEDGSMNCRCENNYFRAEKDPPSMACARPPSAPRNVISNINETSVILDWSWPLDTGGRKDITFNIICKKCGWNVRQCEPCSPNVRFLPRQLGLTNTTVTVTDLLAHTNYTFEIDAVNGVSELSSPPRQYAAVSITTNQAAPSPVMTIKKDRTSRNSISLSWQEPEHPNGIILDYEVKYYQKQEQETSYTILRARGTNVTISSLKPDTTYVFQIRARTAAGYGTNSRKFEFETSPDSFSISGENSH", "modifications": "left off: a dimerising Fc or GST", "notes": "recombinant mouse EphA3 Fc chimeric protein purchased from R&D Systems"}, "B5": {"name": "chimeric 69-10 IgG1/kappa antibody (Ch69-10-IgG1) (antibody, V domains shown)", "VH": "QVTLKESGPGILKPSQTLSLTCSFSGFSLSTSGMGVGWIRQPSGKGLEWLAHIWWDDDKYYNPSLKSQLTISKDTSRNQVFLKITSVDTADTATYYCVRGGITATHYYAMDYWGQGTSVTVSS", "VL": "DIQMTQSPASQSASLGESVTISCLASQTIGTWLSWYQQKPGKSPQLLIYAATSLADGVPSRFSGSGSGTKFSFKISSLQAEDFVSYYCQQLYSSPWTFGGGTKLEIK", "notes": "also called clone 1H8"}, "B6": {"name": "Ch69-10-IgG1: chimeric 69-10 IgG1/kappa antibody with mouse 69-10 VH and VL and human constant regions (antibody, V domains shown)", "VH": "B5 VH", "VL": "B5 VL"}}, "key": {"E0771 cells": {"test_system": "E0771 cells", "assay": "MTT assay / cell proliferation (confluence) assay, E0771", "assay_type": "cell-based, mouse", "conditions": "E0771, erlotinib 30 μM or 50 μM, 48 hours, MTT, FIG. 10", "method": "(§1) Human and mouse breast cancer cells (1×10^4) were cultured in 10% FCS containing RPMI1640 medium on a 96-well flat bottom plate (Corning, Tewksbury, MA) at 37° C. for 24 hours, and then stimulated with IL-26 for 48 hours in the presence or absence of EGFR-TKI (gefitinib or erlotinib) at various concentrations, a signal inhibitor, and a neutralizing antibody. HUVECs were seeded in a 96-well flat bottom plate at 5×10^3 cells/well in a 2% FBS-containing EGM medium in which growth factors were reduced by half, and cultured at 37° C. for 12 hours. Thereafter, the medium was aspirated, and a recombinant human IL-26 dimer was adjusted to a final concentration of 10 ng/mL in a 2% FBS-containing EGM medium containing no growth factors, and added to the cells. The stimulation was started in the presence or absence of control human IgG and anti-human IL-26 antibodies, and the cells were cultured for 48 hours. Thereafter, a concentration of 20 μl or 1/10 of a 5 mg/ml MTT solution (Tetrazolium monosodium salt, WST-8) was added to each well, and the plate was allowed to stand for 1 hour. The absorbance at 450 nm/595 nm was measured using Microplate Reader (Bio-Rad, Hercules, CA) and data was analyzed with Microplate Manager 6 software (Bio-Rad).\n(§2) Human and mouse breast cancer cells (1×10^4) were cultured in RPMI1640 medium containing 10% FCS for 24 hours at 37° C. on a 96-well flat bottom plate (Corning), and then stimulated with IL-26 (30 ng/ml) in the presence or absence of various concentrations of gefitinib and a neutralizing antibody. Cell proliferation was measured as cell confluence using IncuCyte ZOOM (Essen Bioscience, Ann Arbor, MI)."}, "HCC70 cells": {"test_system": "HCC70 cells", "assay": "MTT assay / cell proliferation (confluence) assay, HCC70", "assay_type": "cell-based, human", "conditions": "HCC70, erlotinib 30 μM or 50 μM, 48 hours, MTT, FIG. 10", "method": "as §1, §2"}, "MDA-MB468 cells": {"test_system": "MDA-MB468 cells", "assay": "MTT assay / cell proliferation (confluence) assay, MDA-MB468", "assay_type": "cell-based, human", "conditions": "MDA-MB-468, erlotinib 30 μM or 50 μM, 48 hours, MTT, FIG. 10", "method": "as §1, §2"}, "[1]": {"target": "T1, recombinant human IL-26/AK155 monomer, Cat #1375-IL/CF, R&D Systems (human, UniProt Q9NPH9 22-171)", "T1 construct": "also called recombinant human IL-26 monomer", "T1 sequence (looked up)": "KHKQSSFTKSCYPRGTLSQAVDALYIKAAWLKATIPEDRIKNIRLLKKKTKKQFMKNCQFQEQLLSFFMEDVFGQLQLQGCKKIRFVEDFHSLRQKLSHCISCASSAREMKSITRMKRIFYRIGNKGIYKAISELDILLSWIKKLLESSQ", "assay": "ELISA, human IL-26 monomer coated at 0.5 µg/ml, antibody diluted 2-fold from 5 µg/ml, HRP anti-human kappa detection", "method": "(§3) The antigen binding of purified Ch69-10-IgG1, Hu69-10A-IgG1, and Hu69-10B-IgG1 was analyzed by ELISA. ELISA plates were coated overnight at 4° C. with the addition of 0.5 μg/ml human IL-26 (recombinant human IL-26/AK155 monomer, Cat #1375-IL/CF, R&D Systems, Minneapolis, MN) at 100 μl/well in 0.2 M sodium carbonate buffer (pH 9.4). Wells were washed with the wash buffer and blocked with the ELISA buffer. Subsequently, 100 μl/well of test antibody (mouse 69-10, Ch69-10-IgG1, Hu69-10A-IgG1, or Hu69-10B-IgG1) serially diluted 2-fold in RPMI medium starting at 5 μg/ml was added to measure a binding with IL-26. After incubation at room temperature for 1 hour and washing the plates with a wash buffer, a 1/2,000-diluted HRP-conjugated goat anti-human kappa chain polyclonal antibody (Bethyl Laboratories) (for Ch69-10-IgG1, Hu69-10A-IgG1 and Hu69-10B-IgG1) or a 1/2,000-diluted HRP-labeled goat anti-mouse kappa chain polyclonal antibody (Bethyl Laboratories) (for mouse 69-10) in ELISA buffer was added at 100 μl/well to detect bound antibodies. After incubation at room temperature for 30 min and washing with the wash buffer, 100 μl/well of ABTS substrate (Sigma Aldrich) was added to start color development and 100 μl/well of 2% oxalic acid was added to stop the color development. The absorbance was measured at 405 nm."}, "[2]": {"test_system": "phosphorylation of AKT, JNK and EphA3 in HCC70 cells", "assay": "Western blotting of phosphorylation in HCC70 cells", "assay_type": "cell-based, human", "conditions": "gefitinib 40 μM", "method": "To analyze the phosphorylation of AKT, ERK, p38, JNK, STAT3, and EphA3, E0771 cells and HCC70 cells in 100 mm dishes were stimulated with IL-26 ([…]) and an anti-EphA3 polyclonal antibody (pAb) (10 μg/ml) for a specified period of time. After stimulation, the cells were lysed with a 2% protease inhibitor mixture (Sigma-Aldrich) and/or RIPA buffer added with 1×PhosSTOP (Roche Diagnostics, Tokyo, Japan), and a lysate was separated in a reduced state by SDS-PAGE (15 μg/lane). Immunoblots were performed using an anti-phosphorylated AKT antibody, an anti-phosphorylated ERK antibody, an anti-phosphorylated p38 antibody, an anti-phosphorylated JNK antibody, an anti-phosphorylated STAT3 antibody, and an anti-phosphorylated EphA3 antibody that recognize both human and mouse antigens. For reprobing, the membrane was immersed in a stripping buffer. After the stripping procedure, the membranes were re-probed with anti-pan-AKT, anti-pan-ERK, anti-pan-p38, anti-pan-JNK, anti-pan-STAT3, and anti-pan-EphA3 antibodies recognizing both human and mouse antigens. Images were taken using a C-Digit Blot scanner (MS Techno Systems, Inc., Japan)."}, "EphA3/IL-26 interaction": {"target": "T2, EphA3/IL-26 interaction (Homo sapiens, UniProt Q9NPH9)", "T2 construct": "purchased R&D Systems; host or cells: IL-26 was purchased; EphA3 is endogenous on E0771 cells", "T2 sequence (Q9NPH9 22-171)": "T1 sequence (looked up)", "assay": "Immunofluorescence of rhIL-26-Alexa 488 and cell surface EphA3 on E0771 cells", "assay_type": "cell-based, mouse", "conditions": "E0771, antibodies 10 μg/ml, FIGS. 19 and 20", "method": "E0771 and HCC70 cells (1×10^5) were cultured for 24 hours in RPMI1640 medium with 10% FCS on Lab-Tek chamber slides (Thermo Fisher Scientific). The cultured cells were stimulated with Alexa Fluor 488 labeled IL-26 (30 ng/ml) in the presence or absence of recombinant human and mouse EphA3-Ig for 1 hour. HCC70 cells were stimulated with IL-26 (30 ng/ml) in the presence or absence of gefitinib (40 μM), a signal inhibitor, and a neutralizing antibody for 24 hours. Subcutaneous tumor samples obtained from mice were fixed in 4% paraformaldehyde (Thermo Fisher Scientific) and embedded in OCT compound (Tissue-Tek (registered trademark), Sakura Finetek, Japan). Cells and slides were immunostained with each antibody and observed using a Zeiss inverted microscope and Axiovision 2.0 program (Carl Zeiss, Germany). The fluorescence intensity was quantified with Image-J software (NIH). The images were captured using a 100×400× objective."}, "IL-26": {"target": "T3, IL-26 (Homo sapiens, UniProt Q9NPH9)", "T3 sequence (Q9NPH9 22-171)": "T1 sequence (looked up)", "assay": "ELISA of antigen binding to human IL-26", "design": "purchased R&D Systems 1375-IL/CF", "conditions": "plates coated with 0.5 μg/ml human IL-26 monomer; calculated using GraphPadPrism", "method": "as §3"}, "[3]": {"conditions": "HCC70, Ephrin A5 200 ng/ml, FIG. 26 left"}}, "note": "Changes are numbered by the printed parent chain."}
{"molecule": "C#Cc1cccc(Nc2ncnc3cc(OCCOC)c(OCCOC)cc23)c1", "note": "[erlotinib, Erlotinib, reference compound]", "values": [{"measurement": "cell proliferation under erlotinib", "setting": "E0771 cells", "result": "inhibitory effect of erlotinib on cell proliferation"}, {"measurement": "cell proliferation under erlotinib", "setting": "HCC70 cells", "result": "inhibitory effect of erlotinib on cell proliferation"}, {"measurement": "cell proliferation under erlotinib", "setting": "MDA-MB468 cells", "result": "inhibitory effect of erlotinib on cell proliferation"}]}
{"molecule": "B1", "values": [{"measurement": "EC50", "setting": "[1]", "result": 0.304, "unit": "µg/mL"}]}
{"molecule": "B2", "values": [{"measurement": "EC50", "setting": "[1]", "result": 0.396, "unit": "µg/mL"}]}
{"molecule": "B3", "values": [{"measurement": "phosphorylation of AKT", "setting": "[2]; [3]", "result": "slightly enhanced"}, {"measurement": "phosphorylation of JNK and EphA3", "setting": "[2]; [3]", "result": "little effect"}, {"measurement": "dephosphorylation of EphA3, activation of AKT and JNK phosphorylation", "setting": "[2]; HCC70, IL-26 30 ng/ml or Ephrin A5 200 ng/ml, FIG. 26", "result": "such changes were not observed"}]}
{"molecule": "B4", "values": [{"measurement": "inhibition of colocalization of IL-26 with EphA3 (EphA3/IL-26 interaction)", "setting": "EphA3/IL-26 interaction", "result": "inhibited EphA3/IL-26 interaction"}]}
{"molecule": "B5", "values": [{"measurement": "EC50", "setting": "[1]", "result": 0.299, "unit": "µg/mL"}]}
{"molecule": "B6", "values": [{"measurement": "EC50 values (binding to human IL-26, ELISA)", "setting": "IL-26", "result": 0.299, "unit": "µg/mL"}]}
